Laboratory results as given in patent publication US20220332829A1 (NANJING SANHOME PHARMACEUTICAL, published 2022).

Columns and labels:
[1] = target: T1, human 2Ig-B7-H3-His protein (human, UniProt Q5ZPR3 29-463); assay: ELISA, plate coated with human 2Ig-B7-H3-His, detection with anti-human IgG HRP, OD450
T1 sequence: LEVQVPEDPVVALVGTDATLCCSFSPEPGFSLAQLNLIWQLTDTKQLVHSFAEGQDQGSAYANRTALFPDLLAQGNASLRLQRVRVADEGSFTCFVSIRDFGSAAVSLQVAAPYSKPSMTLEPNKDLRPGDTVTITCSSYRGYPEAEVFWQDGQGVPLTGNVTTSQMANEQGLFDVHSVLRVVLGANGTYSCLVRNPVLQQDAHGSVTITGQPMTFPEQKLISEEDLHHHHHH
Method: The binding activity of antibodies was analyzed by ELISA. 96-well ELISA plates were coated with human 4Ig-B7-H3-His protein or 2Ig-B7-H3-His protein (1 μg/well, prepared in Examples 1 and 2) and incubated overnight at 4° C. The plates were washed 3 times with 1×PBST and then blocked with 5% skim milk at 37° C. for 2 h. After washing 3 times with 1×PBST, the anti-B7-H3 antibody of the present disclosure was used as the primary antibody and added to the ELISA plates in 5-fold gradient dilution starting from 2 μg/mL with a total of 8 concentrations: 2,000 ng/mL, 400 ng/mL, 80 ng/mL, 16 ng/mL, 3.2 ng/mL, 0.64 ng/mL, 0.128 ng/mL and 0.0256 ng/mL respectively. The plates were incubated at 37° C. for 2 h with hBRCA84D as the positive control antibody. After washing 5 times with 1×PBST, Anti-Human IgG HRP (Jackson, 109-035-003, 1:5000) was used as the secondary antibody and incubated at 37° C. for 1 h. After washing 5 times with 1×PBST, color developing solution TMB was added to the plate, and microplate reader (Thermo, Multiskan FC) was used to read OD450 value after termination of the reaction. EC₅₀ was generated by GraphPad.

[2] = target: T2, human 4Ig-B7-H3-His protein (human, UniProt Q5ZPR3 29-466); assay: Biacore X100 SPR, 4Ig-B7-H3-His coupled to CM5 chip, antibody injected
T2 construct: also called human B7-H3 protein
T2 sequence: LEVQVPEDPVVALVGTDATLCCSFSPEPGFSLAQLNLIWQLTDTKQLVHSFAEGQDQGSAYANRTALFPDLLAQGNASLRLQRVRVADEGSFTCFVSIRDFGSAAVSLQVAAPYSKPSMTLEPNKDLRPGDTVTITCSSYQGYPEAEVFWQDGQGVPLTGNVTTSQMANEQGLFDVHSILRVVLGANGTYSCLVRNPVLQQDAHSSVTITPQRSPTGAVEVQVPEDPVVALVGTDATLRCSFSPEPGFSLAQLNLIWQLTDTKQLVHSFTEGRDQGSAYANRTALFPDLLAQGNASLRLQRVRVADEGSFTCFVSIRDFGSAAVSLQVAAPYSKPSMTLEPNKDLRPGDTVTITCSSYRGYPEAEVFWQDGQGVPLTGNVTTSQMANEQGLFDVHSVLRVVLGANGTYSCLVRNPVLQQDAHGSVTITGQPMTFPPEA
From the text: The humanized anti-B7-H3 antibodies prepared in Example 4 were subjected to affinity assay by Biacore. The antigen 4Ig-B7-H3-His was first coupled to the surface of a CM5 chip (GE, Cat. No. BR100012), and the active groups of the uncoupled protein were blocked with ethanolamine. After the baseline was stable, the hu39-01, hu65-13, and hBRCA84D antibodies were respectively diluted in equal proportions. The diluted antibodies of each concentration were placed on the sample injection tray of the instrument in sequence, and the program was set to inject samples respectively.

[3] = target: T3, B7-H3 on surface of tumor cell (786-0, MDA-MB-231, Raji-B7-H3 cells) (human, UniProt Q5ZPR3 29-534); assay: FACS on Raji-B7-H3 cells
T3 construct: whole, on cells; The making of Raji-B7-H3 cells is not described; also called B7-H3 on the surface of tumor cells; human B7-H3
T3 sequence (looked up): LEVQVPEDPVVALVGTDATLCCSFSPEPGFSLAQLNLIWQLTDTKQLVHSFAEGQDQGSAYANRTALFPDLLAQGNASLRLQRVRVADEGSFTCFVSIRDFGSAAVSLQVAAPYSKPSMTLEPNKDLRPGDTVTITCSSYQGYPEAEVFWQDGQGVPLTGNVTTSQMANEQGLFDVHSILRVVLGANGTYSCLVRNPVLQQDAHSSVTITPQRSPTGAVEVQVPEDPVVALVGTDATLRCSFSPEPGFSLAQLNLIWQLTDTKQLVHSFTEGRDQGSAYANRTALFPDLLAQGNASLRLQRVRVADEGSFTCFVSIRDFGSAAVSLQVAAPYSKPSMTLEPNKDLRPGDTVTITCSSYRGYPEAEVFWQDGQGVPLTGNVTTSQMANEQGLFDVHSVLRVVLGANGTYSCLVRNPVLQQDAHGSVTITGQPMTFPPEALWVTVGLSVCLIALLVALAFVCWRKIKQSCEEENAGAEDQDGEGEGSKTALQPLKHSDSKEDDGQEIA
Method: The binding activity of antibodies to B7-H3 on the surface of tumor cells was analyzed by FACS. Mean fluorescence intensity (MFI) and EC₅₀ detected by FACS indicate the binding activity of the antibody to cells. After 786-0 and MDA-MB-231 cells were digested, they were resuspended in 2% FBS-PBS solution and counted. After raji-B7-H3 cells were collected, they were resuspended in 2% FBS-PBS and counted. The above cells were plated in a cell plate with 1×10⁵ cells per well. The anti-B7-H3 antibody of the present disclosure was used as the primary antibody and added to cell plates in gradient dilution starting from 20 μg/mL with a total of 8 concentrations: 20,000 ng/mL, […], 2,000 ng/mL, 400 ng/mL, 80 ng/mL, 16 ng/mL, 3.2 ng/mL, and 0.64 ng/mL respectively. The plates were incubated at 4° C. for 1 h with hBRCA84D as the positive control antibody. PE-Anti-Human IgG (Biolegend, Cat. No. 409303, 1.25 μl/well) was used as the secondary antibody, washed, and detected for the fluorescence intensity generated by the binding of the antibody to the cell surface by a flow cytometer.

- EC50 (read off the curve) [1]: ~10 ng/mL
- Kd [2]: 0.455 nM
- koff [2]: 0.000111 s⁻¹
- kon [2]: 243000 M⁻¹ s⁻¹
- Mean fluorescence intensity (MFI) [3]: 233000
B1: hBRCA84D (antibody, human IgG1, kappa, V domains shown)
VH: EVQLVESGGGLVQPGGSLRLSCAASGFTFSSFGMHWVRQAPGKGLEWVAYISSDSSAIYYADTVKGRFTISRDNAKNSLYLQMNSLRDEDTAVYYCGRGRENIYYGSRLDYWGQGTTVTVSS
VL: DIQLTQSPSFLSASVGDRVTITCKASQNVDTNVAWYQQKPGKAPKALIYSASYRYSGVPSRFSGSGSGTDFTLTISSLQPEDFATYYCQQYNNYPFTFGQGTKLEIKR
notes: Humanized antibody from WO2011/109400; also called positive control antibody hBRCA84D; control antibody hBRCA84D
